Experimental findings from patent publication US20250002610A1 (Genmab, published 2025) are described below.

Substitutions are numbered along the chain they refer to.

In assay [1] the target is T1, human DR4 (Death Receptor 4), cell surface expressed on human tumor cell lines (human, UniProt O00220 24-468).
T1 construct: also called TNFRSF10A; TRAIL-R1
T1 sequence: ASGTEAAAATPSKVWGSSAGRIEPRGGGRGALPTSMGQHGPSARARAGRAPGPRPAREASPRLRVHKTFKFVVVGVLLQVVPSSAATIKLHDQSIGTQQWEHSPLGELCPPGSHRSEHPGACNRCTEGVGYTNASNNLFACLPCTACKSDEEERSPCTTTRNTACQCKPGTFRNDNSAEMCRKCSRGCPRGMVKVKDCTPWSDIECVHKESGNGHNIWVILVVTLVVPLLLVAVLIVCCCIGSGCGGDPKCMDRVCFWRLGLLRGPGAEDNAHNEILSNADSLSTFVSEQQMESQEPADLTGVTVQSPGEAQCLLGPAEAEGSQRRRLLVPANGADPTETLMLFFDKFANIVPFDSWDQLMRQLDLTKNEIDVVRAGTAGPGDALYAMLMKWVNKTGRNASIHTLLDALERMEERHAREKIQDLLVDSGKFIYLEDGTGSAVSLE
The assay is described as follows: flow cytometry on MDA-MB-231 cells (endogenous DR4), antibody incubated at 37 °C, gMFI PE. The procedure: Binding of C1q to membrane-bound BisG1-FAPα-FERL/DR4-FERR was assessed by flow cytometry. MDA-MB-231 cells were harvested as described in Example 3, plated (50,000 cells/well) in round-bottom 96-well plates and incubated with a concentration range of BisG1-FAPα-FERL/DR4-FERR or IgG1-b12-FER control antibody (0.003-30 μg/mL in threefold increments) at 37° C. for 30 min. To assess C1q binding, normal human serum (NHS) (Sanquin, final concentration 20%) was added as a source of C1q and the mixture was incubated at 4° C. for 45 min. Cells were washed twice with FACS buffer (PBS [Lonza, Cat. #BE17-517Q] supplemented with 0.1% [w/v] BSA [Roche, Cat. #10735086001] and 0.02% [w/v] sodium azide [NaN3; bioWORLD, Cat. #41920044-3]) and subsequently incubated with FITC-conjugated rabbit anti-human C1q antibody (DAKO, Cat. #F0254; 1:100 in FACS buffer) at 4° C. for 30 min, protected from light. Within the same experiment, binding of the DR4-antibodies to the MDA-MB-231 cells was confirmed in parallel samples after the incubation with serial dilutions of the tested antibodies.
For orientation: Flow cytometry measures light scatter and fluorescence of single cells or particles in a stream.

Assay [2] concerns the target T2, human FAPα (Fibroblast activation protein alpha), cell surface expressed (human, UniProt Q12884 1-760).
T2 construct: Endogenous on human lung fibroblasts and CAFs
T2 sequence: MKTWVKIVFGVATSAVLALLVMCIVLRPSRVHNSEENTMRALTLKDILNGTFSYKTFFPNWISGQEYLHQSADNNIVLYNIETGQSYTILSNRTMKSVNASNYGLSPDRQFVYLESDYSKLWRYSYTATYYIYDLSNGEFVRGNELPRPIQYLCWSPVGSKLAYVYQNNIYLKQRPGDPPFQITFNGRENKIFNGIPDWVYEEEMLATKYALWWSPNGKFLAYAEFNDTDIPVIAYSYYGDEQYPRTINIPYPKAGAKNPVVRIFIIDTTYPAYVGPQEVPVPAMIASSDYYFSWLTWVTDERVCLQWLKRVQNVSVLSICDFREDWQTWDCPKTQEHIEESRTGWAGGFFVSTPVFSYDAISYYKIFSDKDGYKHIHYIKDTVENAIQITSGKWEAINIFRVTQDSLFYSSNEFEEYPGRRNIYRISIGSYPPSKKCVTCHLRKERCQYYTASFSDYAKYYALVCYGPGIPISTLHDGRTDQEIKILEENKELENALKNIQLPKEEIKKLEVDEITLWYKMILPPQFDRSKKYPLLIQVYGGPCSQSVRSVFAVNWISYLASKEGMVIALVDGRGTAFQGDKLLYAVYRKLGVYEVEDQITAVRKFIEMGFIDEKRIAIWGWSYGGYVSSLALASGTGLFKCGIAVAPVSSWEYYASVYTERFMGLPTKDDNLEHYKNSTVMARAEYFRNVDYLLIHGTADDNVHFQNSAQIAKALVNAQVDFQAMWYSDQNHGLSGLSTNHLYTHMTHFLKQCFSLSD
The assay can be described thus: flow cytometry, human lung fibroblasts, n = 2. The procedure:
Human lung fibroblasts and CAFs (50,000 cells/well) were seeded in 96-Well round bottom plates (Greiner Bio-one, Cat #650101). Antibody dilutions were prepared using fluorescence-activated cell sorting (FACS) buffer, consisting of phosphate buffer saline (PBS, Lonza, Cat #BE17-517Q)+1% Bovine Serum Albumin (BSA, Roche, Cat #10735086001)+0.02% Sodium Azide (Bio-World, Cat #41920044-3). Plates were centrifuged, supernatant was removed, cells were resuspended in 50 μL of human Fc Block (BD, Cat #564220, diluted 1:100 in FACS buffer) and 50 μL of viability stain TO-PRO-3 Iodide (Thermo Fisher, Cat #T3605, diluted 1: 25,000 in FACS buffer), and incubated for 15 min at 4° C. Plates were washed three times with FACS buffer. Plates were centrifuged, supernatant was removed, cells were resuspended in 50 μL of antibody dilutions (concentration range 90-0.0005 μg/mL, three-fold dilution steps using FACS buffer) of BisG1-FAPα-FERL/DR4-FERR, BisG1-FAPα-FERL/b12-FERR, BisG1-b12-FERL/b12-FERR (top six concentrations only for CAFs culture) or IgG1-FAPα-FERL (top four concentrations only for CAFs culture) and incubated for 30 min at 4° C. Cells were washed three times with FACS buffer and resuspended in 50 μL of Fluorescein isothiocyanate (FITC)-labeled polyclonal antibody goat anti-mouse IgG1 (Jackson Immuno Research, Cat #109-096-097, diluted 1:100 in FACS buffer). […] Antibody binding to viable cells (TO-PRO-3 negative) was analyzed by flow cytometry on a FACSCelesta™ (BD biosciences) and data were processed using FlowJo_v10.8.1 (FlowJo LLC). Geomean fluorescence intensity, gMFI, was determined and visualized using GraphPad Prism. Binding curves were analyzed using nonlinear regression analysis. […]
Binding of FAPα-targeting monoclonal antibody clones, IgG1-FAPα-FEAL and IgG1-FAP5-FEAL, and bispecific antibodies carrying a binding arm derived from the two FAPα-binding clones (BisG1-FAPα-FEAL/b12-FEAR and BisG1-FAP5-FEAL/b12-FEAR) to human lung fibroblasts, which endogenously express FAPα, was compared and analyzed by flow cytometry.

B1: BisG1-FAPα-FERL/DR4-FERR (bispecific antibody, human IgG1, kappa, lambda)
heavy 1: EVQLLESGGGLVQPGGSPRLSCEASGFTFSSYALSWVRQAPGKGLEWVSAISGSGGGRYYADSVKGRFTISRDNSKNTLFLQMNSLRAEDTAVYYCAKEGYSSSGTYWDHWGQGTLVTVSSASTKGPSVFPLAPSSKSTSGGTAALGCLVKDYFPEPVTVSWNSGALTSGVHTFPAVLQSSGLYSLSSVVTVPSSSLGTQTYICNVNHKPSNTKVDKRVEPKSCDKTHTCPPCPAPEFERGPSVFLFPPKPKDTLMISRTPEVTCVVVDVSHEDPEVKFNWYVDGVEVHNAKTKPREEQYNSTYRVVSVLTVLHQDWLNGKEYKCKVSNKALPAPIEKTISKAKGQPREPQVYTLPPSREEMTKNQVSLTCLVKGFYPSDIAVEWESNGQPENNYKTTPPVLDSDGSFLLYSKLTVDKSRWQQGNVFSCSVMHEALHNHYTQKSLSLSPG
light 1: AIQMTQSPSSVSASVGDRVTITCRASQGVSSWLAWYQQKPGRAPKLLIYVASTLQSGVPSRFSGSGSGTDFTLTINSLQPEDFATYYCQQANSFPPTFGQGTRLEMKRTVAAPSVFIFPPSDEQLKSGTASVVCLLNNFYPREAKVQWKVDNALQSGNSQESVTEQDSKDSTYSLSSTLTLSKADYEKHKVYACEVTHQGLSSPVTKSFNRGEC
heavy 2: QVQLQESGPGLVKPSGTLSLTCAVSGGSISSYSWWSWIRQPPGKGLEWIGELYHSGSTNYNPSLKSRVTISVDKSKNQFSLKLRSVTAADTAVYYCVRGVATIDYWGQGTLVTVSSASTKGPSVFPLAPSSKSTSGGTAALGCLVKDYFPEPVTVSWNSGALTSGVHTFPAVLQSSGLYSLSSVVTVPSSSLGTQTYICNVNHKPSNTKVDKRVEPKSCDKTHTCPPCPAPEFERGPSVFLFPPKPKDTLMISRTPEVTCVVVDVSHEDPEVKFNWYVDGVEVHNAKTKPREEQYNSTYRVVSVLTVLHQDWLNGKEYKCKVSNKALPAPIEKTISKAKGQPREPQVYTLPPSREEMTKNQVSLTCLVKGFYPSDIAVEWESNGQPENNYKTTPPVLDSDGSFFLYSRLTVDKSRWQQGNVFSCSVMHEALHNHYTQKSLSLSPG
light 2: QSALTQPPSASGSPGQSVTISCTGTSSDVGGYNFVSWYQQDPGKAPKLLIYEVTKRPSGVPDRFSGSKSGNTASLTVSGLQAEDEADYYCSSYAGSNNVMFGGGTKLTVLGQPKAAPSVTLFPPSSEELQANKATLVCLISDFYPGAVTVAWKADSSPVKAGVETTTPSKQSNNKYAASSYLSLTPEQWKSHRSYSCQVTHEGSTVEKTVAPTECS
notes: Human IgG1 bispecific made by controlled Fab-arm exchange of IgG1-FAPα-FERL and IgG1-DR4-FERR; monovalent for FAPα and for DR4; also called GEN1057
In general, EC50 (read off the curve) refers to the concentration giving half of the maximal effect. High values mean a less potent agent, low ones a more potent agent. Consider B1, for which the “EC50 (read off the curve)” value in assay [1] is approximately 0.5 µg/mL.

B2: BisG1-FAPα-FEAL/b12-FEAR (bispecific antibody, human IgG1, kappa)
heavy 1: B1 heavy 1 with R240G, D269A
light 1: B1 light 1
heavy 2: QVQLVQSGAEVKKPGASVKVSCQASGYRFSNFVIHWVRQAPGQRFEWMGWINPYNGNKEFSAKFQDRVTFTADTSANTAYMELRSLRSADTAVYYCARVGPYSWDDSPQDNYYMDVWGKGTTVIVSSASTKGPSVFPLAPSSKSTSGGTAALGCLVKDYFPEPVTVSWNSGALTSGVHTFPAVLQSSGLYSLSSVVTVPSSSLGTQTYICNVNHKPSNTKVDKRVEPKSCDKTHTCPPCPAPEFEGGPSVFLFPPKPKDTLMISRTPEVTCVVVAVSHEDPEVKFNWYVDGVEVHNAKTKPREEQYNSTYRVVSVLTVLHQDWLNGKEYKCKVSNKALPAPIEKTISKAKGQPREPQVYTLPPSREEMTKNQVSLTCLVKGFYPSDIAVEWESNGQPENNYKTTPPVLDSDGSFFLYSRLTVDKSRWQQGNVFSCSVMHEALHNHYTQKSLSLSPG
light 2: EIVLTQSPGTLSLSPGERATFSCRSSHSIRSRRVAWYQHKPGQAPRLVIHGVSNRASGISDRFSGSGSGTDFTLTITRVEPEDFALYYCQVYGASSYTFGQGTKLERKRTVAAPSVFIFPPSDEQLKSGTASVVCLLNNFYPREAKVQWKVDNALQSGNSQESVTEQDSKDSTYSLSSTLTLSKADYEKHKVYACEVTHQGLSSPVTKSFNRGEC
notes: Fab-arm exchange of IgG1-FAPα-FEAL and IgG1-b12-FEAR
One may read the EC50 as the concentration that produces a half-maximal response. A higher EC50 goes with lower potency in that assay. Molecule B2 returned an EC50 in assay [2] of 0.044 µg/mL.
